The source of these data is paper PMC3320604, “A Genome-Wide Screen for Genetic Variants That Modify the Recruitment of REST to Its Target Genes”.

Data set [1] has as its target T1, HisMBP-REST/DBD (UniProt Q13127 159-412).
T1 sequence: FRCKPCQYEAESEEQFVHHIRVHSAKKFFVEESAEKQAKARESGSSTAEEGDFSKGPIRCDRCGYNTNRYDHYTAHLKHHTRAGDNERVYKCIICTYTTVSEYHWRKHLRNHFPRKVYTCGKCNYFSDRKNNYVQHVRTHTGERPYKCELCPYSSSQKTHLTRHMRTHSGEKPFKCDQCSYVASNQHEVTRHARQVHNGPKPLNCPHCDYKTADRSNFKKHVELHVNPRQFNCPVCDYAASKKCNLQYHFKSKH
Kind of data set: competition EMSA; 10 mM Tris-HCl pH 8.0, 100 mM KCl, 50 uM ZnCl2 (printed '50 M ZnCl', symbols lost), 2 mM 2-mercaptoethanol, 10% glycerol, 0.1% NP-40, 0.1 mg/ml BSA; 0.5 nM probe, 150 nM competitor, 40 nM protein, 1 h; temperature lost in text. To be noted: protein: recombinant; tags: His-MBP.

Data set [2] concerns the target T1, HisMBP-REST/DBD. As to the kind of experiment: competition; 10 mM Tris-HCl pH 8.0, 100 mM KCl, 50 uM ZnCl2 (printed '50 M ZnCl', symbols lost), 2 mM 2-mercaptoethanol, 10% glycerol, 0.1% NP-40, 0.1 mg/ml BSA; 0.5 nM probe, 150 nM competitor, 40 nM protein, 1 h; temperature lost in text. As to conditions: protein: recombinant; tags: His-MBP.

B1: Ideal RE1 (Chrm4) (dsDNA)
DNA 1: TCAGCCTCTCTTCAGCACCTCGGACAGCTCCGGACCTCTC
DNA 2: GAGAGGTCCGGAGCTGTCCGAGGTGCTGAAGAGAGGCTGA
For the molecule B1, the binding result in data set [1] is “binds”.

B2: Mutated RE1 (Mut) (dsDNA)
DNA 1: TCAGCCTCTCTTCAGCAGGTCCCACAGCTCCGGACCTCTC
DNA 2: GAGAGGTCCGGAGCTGTGGGACCTGCTGAAGAGAGGCTGA
Take B2: the binding result in data set [2] is on record as “no binding”.
